In assay [1] the target is T1, 人CD20胞外区多肽 (human).
T1 construct: Synthetic 47-residue peptide of the extracellular region of human CD20 (Sangon); also called CD20多肽; CD20抗原
T1 peptide: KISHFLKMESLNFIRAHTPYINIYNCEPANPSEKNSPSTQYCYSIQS
As to the kind of experiment: phage ELISA, CD20 extracellular peptide coated at 2.5 μg/mL, OD450.

Assay [2] has as its target T2, Raji细胞表面CD20蛋白 (human, UniProt P11836 1-297).
T2 construct: whole, on cells; Raji cells used as CD20-positive cells; also called Raji细胞表面CD20分子
T2 sequence (looked up): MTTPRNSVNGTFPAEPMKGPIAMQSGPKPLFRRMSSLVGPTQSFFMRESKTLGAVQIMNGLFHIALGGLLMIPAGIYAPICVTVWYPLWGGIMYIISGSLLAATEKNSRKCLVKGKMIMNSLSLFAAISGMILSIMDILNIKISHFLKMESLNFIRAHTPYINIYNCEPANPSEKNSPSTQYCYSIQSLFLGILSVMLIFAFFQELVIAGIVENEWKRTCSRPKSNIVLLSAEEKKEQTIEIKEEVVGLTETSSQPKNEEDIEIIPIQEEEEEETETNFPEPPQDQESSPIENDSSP
The assay can be described thus: immunofluorescence on fixed Raji cells, sdAb 10 μg/mL, fluorescent anti-His detection.

In assay [3] the target is T2, Raji细胞表面CD20蛋白. The assay can be described thus: flow cytometry, FITC-labelled BsNb 100 μg/mL on Raji cells.
For assay [4], the target named is T1, 人CD20胞外区多肽. As to the kind of experiment: ELISA, CD20 extracellular peptide coated at 2.5 μg/mL, BsNb 30 to 5 μg/mL, HRP anti-His detection, OD450.

B1: sdAb11 (抗CD20单域重链抗体) (VHH)
VHH: DVQLVESGGGLVQPGGSLRLSCTAPGFTSNNCGMDWWRQAAGKQREWVSSIATDGSTSYADSVKGRFTISKDKAKDTVFLQMNSLKPEDTAMYNCAMRRWGWGCLGRLWQSDFGYWGQGTQVTVSS
notes: Expressed in E. coli BL21(DE3) from VHH-pET-25b-SBP and purified on Ni-NTA; also called CD20单域抗体; Anti-CD20 sdAb; not shown: tags from vector pET-25b-SBP (His tag detected with anti-His antibody; SBP)
In the case of B1, the binding result in the assay with 人CD20胞外区多肽 [1] and in the assay with Raji细胞表面CD20蛋白 [2] was “binds” throughout.

B2: Anti-CD20/CD3 BsNb (bispecific antibody)
chain: EVQLLEEVQLVESGGGLVQPGGSLRLSCAASGFTFDDYGMSWVRQAPGKWLEWVSDISWNGGSTYYADSVKGRFTISRDNAENTLYLQMNSLKPDDTAVYYCAKMGEGGWGANDYWGQGTQVTVSSSGGGGSGGGGSGGGGSMAQVQLQMADVQLVESGGGLVQPGGSLRLSCTAPGFTSNNCGMDWWRQAAGKQREWVSSIATDGSTSYADSVKGRFTISKDKAKDTVFLQMNSLKPEDTAMYNCAMRRWGWGCLGRLWQSDFGYWGQGTQVTVSS
notes: Single chain: anti-CD20 sdAb, linker, anti-CD3 sdAb; also called CD20 sdAb-linker-CD3 sdAb; 抗CD20和CD3双特异性单域抗体
As for B2, the binding result in the assay with Raji细胞表面CD20蛋白 [3] and with 人CD20胞外区多肽 [4] was “binds” throughout.

Source of the values: patent CN114685664A (UNIV INNER MONGOLIA AGRI, dated 2022).
